Measurements taken from publication PMC7826336.

What was measured:
kallikrein (PKa) = kallikrein (PKa) (UniProt P03952); test: SPR; Pioneer biosensor, COOHV chip; PMSF-treated PK (FC-1) or PKa (FC-3) immobilised by amine coupling; analytes diluted to 250 nM, OneStep gradient injection, 30 uL/min, dissociation 600 s; 22 °C; 10 mM Hepes, 140 mM NaCl, 1.5 mM CaCl2, 40 uM ZnCl2 pH 7.4; simple ka/kd 1 or 2 binding site model
prekallikrein (PK) = test: as above

Chain of kallikrein (PKa) (P03952 20-390, chain 1 of 2): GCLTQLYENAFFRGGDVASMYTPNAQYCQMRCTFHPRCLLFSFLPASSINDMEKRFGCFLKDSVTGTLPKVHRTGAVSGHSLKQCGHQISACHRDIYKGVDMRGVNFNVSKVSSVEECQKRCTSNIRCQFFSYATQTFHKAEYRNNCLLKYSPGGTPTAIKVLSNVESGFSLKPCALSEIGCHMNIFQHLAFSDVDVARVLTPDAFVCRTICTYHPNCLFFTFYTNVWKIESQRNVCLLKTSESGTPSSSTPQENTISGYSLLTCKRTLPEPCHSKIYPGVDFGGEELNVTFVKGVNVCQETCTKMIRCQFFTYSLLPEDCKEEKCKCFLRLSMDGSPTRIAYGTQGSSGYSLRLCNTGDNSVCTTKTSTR
Chain of kallikrein (PKa) (P03952 391-638, chain 2 of 2): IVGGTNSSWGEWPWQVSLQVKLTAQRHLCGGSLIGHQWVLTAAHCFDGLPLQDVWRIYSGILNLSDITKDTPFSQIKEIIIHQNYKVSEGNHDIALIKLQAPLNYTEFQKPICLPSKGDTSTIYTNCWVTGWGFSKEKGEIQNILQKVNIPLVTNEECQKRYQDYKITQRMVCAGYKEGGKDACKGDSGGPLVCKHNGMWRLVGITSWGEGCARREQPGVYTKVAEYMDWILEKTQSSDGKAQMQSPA

| Substance | Kd (kallikrein (PKa)) | koff (kallikrein (PKa)) | kon (kallikrein (PKa)) | Kd (prekallikrein (PK)) | koff (prekallikrein (PK)) | kon (prekallikrein (PK)) |
| --- | --- | --- | --- | --- | --- | --- |
| high molecular weight kininogen (HK) (natural protein) | 0.272 nM | 2.82e-05 s⁻¹ | 104000 M⁻¹ s⁻¹ | 0.245 nM | 3.73e-05 s⁻¹ | 152000 M⁻¹ s⁻¹ |
| activated Factor IX (FIXa) (from UniProt P00740 47-191; P00740 227-461) (enzyme) | – | – | – | 0.492 nM | 6.45e-05 s⁻¹ | 131000 M⁻¹ s⁻¹ |
| Factor IX (FIX) (from UniProt P00740 47-461) (natural protein) | – | – | – | 2.17 nM | 0.000239 s⁻¹ | 110000 M⁻¹ s⁻¹ |
